Earlier results, collected in paper PMC4258470.
pKd: −log10 of the molar value.

Assays:
[1] = target: p53 N-terminal transactivation domain (Homo sapiens) (UniProt P04637)
[2] = target: HPV16 E7 CR1-CR2 (Human papillomavirus type 16) (UniProt P03129)
Chain of HPV16 E7 CR1-CR2 (Human papillomavirus type 16) (P03129 1-40): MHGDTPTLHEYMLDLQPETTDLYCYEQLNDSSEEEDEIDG

Chain of pRb (P06400 2-928): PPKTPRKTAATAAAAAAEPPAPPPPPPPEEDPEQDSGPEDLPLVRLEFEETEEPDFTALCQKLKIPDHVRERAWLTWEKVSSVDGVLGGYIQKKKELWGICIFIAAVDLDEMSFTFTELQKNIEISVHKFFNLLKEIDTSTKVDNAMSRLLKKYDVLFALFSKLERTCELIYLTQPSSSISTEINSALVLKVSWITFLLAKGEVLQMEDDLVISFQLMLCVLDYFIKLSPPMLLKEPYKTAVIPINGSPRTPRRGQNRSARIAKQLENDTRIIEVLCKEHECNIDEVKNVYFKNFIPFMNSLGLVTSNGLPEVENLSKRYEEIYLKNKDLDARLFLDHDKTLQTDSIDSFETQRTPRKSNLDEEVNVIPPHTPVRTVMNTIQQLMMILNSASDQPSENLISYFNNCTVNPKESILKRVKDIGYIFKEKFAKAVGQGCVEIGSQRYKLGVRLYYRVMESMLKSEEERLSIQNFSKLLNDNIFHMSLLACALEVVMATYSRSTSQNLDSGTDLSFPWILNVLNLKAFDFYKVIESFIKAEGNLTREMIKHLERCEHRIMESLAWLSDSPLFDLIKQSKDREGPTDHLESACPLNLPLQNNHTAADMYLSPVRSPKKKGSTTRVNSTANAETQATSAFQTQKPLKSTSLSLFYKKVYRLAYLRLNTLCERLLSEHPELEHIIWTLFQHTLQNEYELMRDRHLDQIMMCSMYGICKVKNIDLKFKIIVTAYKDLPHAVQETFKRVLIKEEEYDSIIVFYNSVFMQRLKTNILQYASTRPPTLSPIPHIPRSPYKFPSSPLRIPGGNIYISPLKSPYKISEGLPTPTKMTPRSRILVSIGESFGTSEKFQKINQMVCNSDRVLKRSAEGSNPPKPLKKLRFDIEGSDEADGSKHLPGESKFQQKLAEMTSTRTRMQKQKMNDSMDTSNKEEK
Chain of CBP TAZ2 (P45481 1766-1847): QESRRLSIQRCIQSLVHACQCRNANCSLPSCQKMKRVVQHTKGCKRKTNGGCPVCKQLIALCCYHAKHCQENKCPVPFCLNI
Chain of p53 N-terminal transactivation domain (Homo sapiens) (P04637 1-61): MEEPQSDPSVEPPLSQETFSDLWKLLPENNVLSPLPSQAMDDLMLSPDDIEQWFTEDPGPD

| pKd [1] | Substance | pKd [2] |
| --- | --- | --- |
| 7.70 | CBP TAZ2 (from UniProt P45481) | – |
| – | pRb (from UniProt P06400) | 8.70 |
